For assay [1], the target named is T1, human CXCR4 (human, UniProt P61073 1-352). The assay is described as follows: cell-based or functional assay.
Another assay concerns the target T2, hCXCR5 (human, UniProt P32302 1-372).
T2 construct: whole, on cells
T2 sequence (looked up): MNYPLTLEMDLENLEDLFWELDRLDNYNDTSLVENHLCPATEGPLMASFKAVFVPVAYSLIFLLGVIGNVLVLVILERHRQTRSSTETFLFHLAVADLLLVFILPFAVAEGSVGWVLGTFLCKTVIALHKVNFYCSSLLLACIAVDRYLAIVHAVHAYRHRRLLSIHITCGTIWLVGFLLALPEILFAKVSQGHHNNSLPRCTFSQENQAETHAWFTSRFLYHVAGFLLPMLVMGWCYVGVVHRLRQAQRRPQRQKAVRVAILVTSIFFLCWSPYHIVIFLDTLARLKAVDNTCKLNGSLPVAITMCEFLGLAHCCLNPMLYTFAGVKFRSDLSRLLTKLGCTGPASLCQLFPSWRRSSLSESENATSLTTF
The assay is described as follows: flow cytometry, IgG 100 nM, cells over-expressing hCXCR5. Here is the method:
(§1) Cells over-expressing different GPCRs other than CXCR4 and several lines transfected to over-express CXCR4 (R1610-hCXCR4, Cf2Th-hCXCR4 and CHO-hCXCR4) were compared. Cultures were incubated with a test IgG at 100 nM in FACS buffer for 40 min at 4° C. Thereafter, cells were washed twice, stained with anti-human-Fc antibody-PE conjugate (Jackson Immunoresearch Laboratories Inc., West Grove, Pa.), washed twice in FACS buffer and then transferred to FIX buffer. Fluorescence intensities were measured by GUAVA PCA-96 at 425V (in triplicate).
(§2) The expression of GPCRs other than CXCR4 was confirmed using commercially available antibodies (positive controls). For example, a commercial anti-CXCR1 antibody was used as a positive control for confirming the expression of CXCR1 on the CXCR1-transfected CHO cells.
For orientation: Flow cytometry measures light scatter and fluorescence of single cells or particles in a stream.

The target of a further assay is T3, hCCR6 (human, UniProt P51684 1-374).
T3 construct: whole, on cells
T3 sequence (looked up): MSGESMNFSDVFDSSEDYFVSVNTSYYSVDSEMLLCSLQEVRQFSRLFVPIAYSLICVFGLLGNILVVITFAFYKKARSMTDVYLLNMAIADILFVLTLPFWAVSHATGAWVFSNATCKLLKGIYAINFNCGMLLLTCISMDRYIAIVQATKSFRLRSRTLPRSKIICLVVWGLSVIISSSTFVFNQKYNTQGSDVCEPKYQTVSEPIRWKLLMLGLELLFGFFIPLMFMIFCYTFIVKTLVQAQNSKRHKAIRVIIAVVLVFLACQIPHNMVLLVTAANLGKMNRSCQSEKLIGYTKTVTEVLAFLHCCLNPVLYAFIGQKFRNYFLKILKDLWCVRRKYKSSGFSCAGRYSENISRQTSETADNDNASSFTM
Nature of the assay: flow cytometry, IgG 100 nM, cells over-expressing hCCR6. Here is the method:
as §1, §2

Assay [2] has as its target T1, human CXCR4. Nature of the assay: flow cytometry on Cf2-Th cells transfected with human CXCR4, IgG1 format. Here is the method: A typical protocol for the fluorescent flow cytometry-based assay was as follows. Ten microliter of a purified test IgG solution or buffer as a control were added to 10 microliter of a suspension containing approximately 30,000 Cf2-Th cells transfected to express human CXCR4. After incubation on ice for 40 min, cells were washed with FACS buffer (phosphate-buffered saline (PBS), pH7.4; 2% fetal calf serum, 0.1% sodium azide) to remove unbound antibodies. Ten microliter of a solution of phycoerythrin (PE)-conjugated mouse anti-human Fc monoclonal antibody (1/20 dilution; catalog number 12-4998-82, eBioscience Inc., San Diego, Calif.) were then added to the cells, and, after a 30-min incubation on ice, cells were washed twice and then formalin-fixed (FIX buffer: PBS, pH7.4; 0.5% formaldehyde). Fixed samples were analysed by fluorescent flow cytometry using a Guava-PCA96 instrument (EMD Millipore Chemicals, Merck KGaA, Darmstadt, Germany).

Another assay concerns the target T4, hCXCR7 (human, UniProt P25106 1-362).
T4 construct: whole, on cells
Nature of the assay: flow cytometry, IgG 100 nM, cells over-expressing hCXCR7. Here is the method: as §1, §2

A further assay has as its target T5, hCCR4 (human, UniProt P51679 1-360).
T5 construct: whole, on cells
T5 sequence (looked up): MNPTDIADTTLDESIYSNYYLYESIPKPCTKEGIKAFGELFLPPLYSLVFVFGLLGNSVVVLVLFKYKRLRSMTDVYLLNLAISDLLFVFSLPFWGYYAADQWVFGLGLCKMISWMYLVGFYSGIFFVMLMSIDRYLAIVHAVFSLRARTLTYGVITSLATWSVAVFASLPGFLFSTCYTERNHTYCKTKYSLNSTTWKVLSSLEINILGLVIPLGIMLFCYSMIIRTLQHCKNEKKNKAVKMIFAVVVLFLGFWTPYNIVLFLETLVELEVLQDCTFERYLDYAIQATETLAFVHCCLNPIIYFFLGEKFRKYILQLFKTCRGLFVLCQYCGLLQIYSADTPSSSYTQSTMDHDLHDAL
The assay is described as follows: flow cytometry, IgG 100 nM, cells over-expressing hCCR4. Here is the method:
as §1, §2

Assay [3] concerns the target T1, human CXCR4. Nature of the assay: flow cytometry, IgG 10 µg/mL, CXCR4-expressing Ramos (RA1) cells. Here is the method: Binding of test IgGs to CXCR4-expressing human lymphoma cells (Ramos; RA1, ATCC® CRL-1596™) was measured by fluorescent flow cytometry-based assay. Tumor cell staining was conducted as follows: human Fcγ receptors of RA1 cells were saturated by incubation at 4° C. for 30 minutes in PBS containing 2% human serum and 0.5 mM EDTA. Cells were then incubated at 4° C. for one hour with test IgGs or a human isotypic IgG1 kappa control (Coger Sarl, Paris, France) (both antibody types at 10 μg/mL). The cells were washed with PBS and further incubated for one hour at 4° C. with a goat F(ab′)2 fragment anti-human IgG (H+L)-PE (Beckman Coulter). The cells were washed twice with PBS and fixed with 0.5% formaldehyde in PBS for analysis by flow cytometry. The data were acquired using an eleven-color flow cytometer (LSRII, BD Biosciences), and the analyses were performed with the FlowJo flow cytometry analysis software (Tree Star Inc., Ashland, Oreg.). The living cells were selected using the side scatter (SSC) and the forward scatter (FSC); 10,000 events were acquired for each analysis. MFI values were recorded using the PE channel.

Assay [4] addresses T1, human CXCR4. Nature of the assay: flow cytometry, IgG 100 nM, Cf2Th-hCXCR4 cells. Here is the method:
as §1

T1 sequence (P61073 whole entry): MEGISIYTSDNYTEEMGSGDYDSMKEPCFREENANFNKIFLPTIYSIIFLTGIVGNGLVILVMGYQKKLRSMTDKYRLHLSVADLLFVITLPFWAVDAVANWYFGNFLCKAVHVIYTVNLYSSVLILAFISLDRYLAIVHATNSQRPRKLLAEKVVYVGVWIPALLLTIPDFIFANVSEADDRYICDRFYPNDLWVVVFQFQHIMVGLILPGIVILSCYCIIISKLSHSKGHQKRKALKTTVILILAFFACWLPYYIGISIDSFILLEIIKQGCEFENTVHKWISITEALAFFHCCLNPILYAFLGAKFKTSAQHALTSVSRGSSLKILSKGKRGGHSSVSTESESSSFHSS
T4 sequence (P25106 whole entry): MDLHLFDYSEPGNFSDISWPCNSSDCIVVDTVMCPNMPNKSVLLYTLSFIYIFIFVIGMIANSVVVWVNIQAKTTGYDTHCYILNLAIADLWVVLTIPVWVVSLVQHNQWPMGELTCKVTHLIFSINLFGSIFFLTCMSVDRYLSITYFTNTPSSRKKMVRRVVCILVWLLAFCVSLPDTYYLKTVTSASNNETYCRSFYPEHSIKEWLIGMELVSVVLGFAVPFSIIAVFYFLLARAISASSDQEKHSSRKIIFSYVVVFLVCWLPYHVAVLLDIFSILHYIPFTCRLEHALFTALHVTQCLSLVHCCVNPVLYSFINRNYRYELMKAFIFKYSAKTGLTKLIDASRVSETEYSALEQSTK

B1: V62.1-R108H (antibody, human IgG1, V domains shown)
VH: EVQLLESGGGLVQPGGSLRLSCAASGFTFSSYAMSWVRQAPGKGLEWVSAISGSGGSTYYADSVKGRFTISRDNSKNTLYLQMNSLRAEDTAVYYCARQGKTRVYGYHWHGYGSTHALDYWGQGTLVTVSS
VL: EIVLTQSPGTLSLSPGERATLSCRASQSVSSSYLAWYQQKPGQAPRLLIYGASSRATGIPDRFSGSGSGTDFTLTISRLEPEDFAVYYCQQSDYSYPFTFGQGTKVEIKR
notes: Tested as an IgG (human IgG1 format); also called IgG1 V62.1 R108H
Take B1: the “% Inhibition of SDF-1alpha-induced chemotaxis of U937 cells (IgG at 100 nM)” value (shortened to “% Inhibition”) with human CXCR4 [1] turned out to be 69%. For the same molecule, the MFI with hCXCR5 was determined as 3; in the assay with hCCR6, 3; with hCXCR7, 4; with hCCR4 it was 3; with human CXCR4 [3], 429; in the assay with human CXCR4 [4], 861. In the assay with human CXCR4 [2], the EC50 is < 10 nM.

B2: V62.1 (antibody, human IgG1, V domains shown)
VH: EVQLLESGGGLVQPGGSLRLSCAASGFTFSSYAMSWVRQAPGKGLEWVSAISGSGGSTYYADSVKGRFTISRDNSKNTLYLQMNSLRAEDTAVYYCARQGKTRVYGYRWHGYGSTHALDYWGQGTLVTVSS
VL: B1 VL
notes: Tested as an IgG (human IgG1 format; DP47 heavy and DPK22 kappa light frameworks) made in CHO-3E7 cells; also called IgG V62.1
On to B2, for which, in the assay with human CXCR4 [1], the “% Inhibition” value amounted to 76%. Also, the MFI with hCXCR5 came out at 4; with hCCR6, 3; in the assay with hCXCR7 it was 3; with hCCR4, 3; in the assay with human CXCR4 [3], 595; with human CXCR4 [4], 1270. Further, the EC50 with human CXCR4 [2] is < 10 nM.

B3: V62.1-R108H-m80 (antibody, human IgG1, V domains shown)
VH: EVQLLESGGGLVQPGGSLRLSCAASGFTISPYSITWVRQAPGKGLEWVSQINSYNGKTYYADSVKGRFTISRDNSKNTLYLQMNSLRAEDTAVYYCARQGKTRVYGYHWHGYGSTHALDYWGQGTLVTVSS
VL: B1 VL
notes: Tested as an IgG (human IgG1 format); also called V62.1-H-m80; V62.1-R108H-m80-Wt
In the case of B3, in the assay with human CXCR4 [1], the “% Inhibition” value was found to be 75%. Moreover, the MFI with hCXCR5 was 2; with hCCR6, 10; in the assay with hCXCR7, 2; with hCCR4, 2; with human CXCR4 [3] it was 440; in the assay with human CXCR4 [4], 3870. Also, in the assay with human CXCR4 [2], the EC50 was < 10 nM.

B4: V62.1-R108H-m47-m38 (antibody, human IgG1, V domains shown)
VH: EVQLLESGGGLVQPGGSLRLSCAASGFTFSSYAMSWVRQAPGKGLEWVSAISGSGGTRYADSVKGRFTISRDNSKNTLYLQMNSLRAEDTAVYYCARQGKTRVYGYHWHGYGSTHALDYWGQGTLVTVSS
VL: EIVLTQSPGTLSLSPGERATLSCRASQSVSSSYLAWYQQKPGQAPRLLIYGASSRATGIPDRFSGSGSGTDFTLTISRLEPEDFAVYYCQQWSSDSVTFGQGTKVEIKR
notes: Tested as an IgG (human IgG1 format); also called V62.1-H-m47-m38; IgG1 62.1-R108H-m47-m38
As for B4, the “% Inhibition” value with human CXCR4 [1] worked out at 78%. Further, the MFI with hCXCR5 came out at 2; in the assay with hCCR6 it was 2; with hCXCR7, 2; with hCCR4, 2; with human CXCR4 [3] it was 549; in the assay with human CXCR4 [4], 2350. For the same molecule, in the assay with human CXCR4 [2], the 50% effective concentration (EC50) is < 10 nM.

By EC50 is commonly meant the concentration that produces a half-maximal response.

The record behind these values is patent publication US20190389958A1 (MSM PROTEIN TECHNOLOGIES, published 2019).
